# The nanobody polyreactivity screen of Harvey et al. (2022)
# Assay: yeast display, Sf9 membrane polyspecificity reagent, FACS + sequencing; frameworks hold sequencing errors
# Summary of the method: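 Using colony PCR, genes from sorted yeast display clones were amplified, then sequenced on MiSeq at 2 × 250 and filtered by CDR length. The clones had been stained with 10% biotinylated, detergent-solubilized Sf9 membrane reagent for 1 hour at 4 °C and sorted by FACS into low and high (top ~1%) gates on anti-HA and streptavidin fluorescence. Polyreactivity labels come from the gate of origin.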
row,Sequence,polyreactivity (PSR sort gate)
1,QVQLEDSGGGLVQAGGSLRLSCAASGSIIGSYAMGLYRQAPGKERELVAAISRRGGSTYYADSVKGRFTISRDNAKNTVYLQMNSLKPEDTAVYYCARRDYGVLNKGLGQEGDYWGQGTQVTVSS,low polyreactivity
2,QVQLVESGGGIVQAGGSLRISCAASRRTYFFNDMGWYRQAPGKERELVAAIGWSTVTTYYADSVKGRFTISRDNAKYTVYFQMISLKPEDTAVYYCAADADGWYSPYDYWGQGSQVTVSS,high polyreactivity
3,QVQLVESGGGLVQAGGSLRLSCAASGNTFWSYTMGWYRQAPGKERELVAAITRSGGSTYYADSVKGRFTISRDHAKNTVYLQMNSLKPEDTAVYYCAADYYSASRFGYWGQGTQVTVSS,high polyreactivity
4,QVQLVESGGGLVQAGGRLRLSCAASGSIFITYAMGWYRQAPGKEMELVAAIRDSGDRTYYADSVKGRFTISRDNAKNTVYLQMNSLKPEDTAVYYCNARWQEPLKYDYWGQGTQVTVSS,low polyreactivity
5,QVQLVESGGGLVQAGGSLRLSCAASGIIFYFYAMGWYRQAPGKERELVAAISRGGSTKYADSVKGRFTISRDNAKNTVYLQMNSLKPEDTAVYYCAATRRRPSEYYYWGQGTQVTVSS,high polyreactivity
6,QVQLVESGGGLVQAGGSLRLSCAASGSTFAYYSMGWYRQAPGKERELVAAISRTGGSTYYADSVKGRFTISRDNAKNTVYLQMNSLKPEDTAVYYCNARAPVGTFDYDYWGQGTQVTVSS,low polyreactivity
7,QVQLVESGGGLVQAGGSLRLSCAASGFTFGFYAMGWYRQAPGKERELVASITTRGGSTRYADSVKGRFTISRDNAKNTVYLQMNSLKPEDTAVYYCAAQYSYVRYLKRGYGYWGQGTQVTVSS,high polyreactivity
8,QVQLVDSVGGLVQAGGSLPLICAASGSTFGNYAKGWYRQAPGKERELVAAINSGDSTSYADSVKGRFTISRDNANNTVYLHMNSLKPEDTAVYYCSVRPRRNQYGYWGQGTQLTVSS,low polyreactivity
9,QVQLVESGGGLVQAGGSLRLSCAASGRIFNYYAMGWYRQAPGKERELVAGISGSGTSTYYADSVKGRFTISRDNAKNTVYLQMNSLKPEDTAVYYCAADVFRDDVWLDYWGQGTQVTVSS,low polyreactivity
10,QVQLVESGGGLVQAGGSLRLSCAASGSTFRYYVMGWYRQAPGKERELVAAISSSGGSTYYADSVKGRFTISRDNAKNTVYLQMNSLKPEDTAVYYCARDKGYVSYRYNYWGQGTQVTVSS,high polyreactivity
11,QVQLVESGGGLVQAGGSLRLSCAASGSTFRGYAMGWYRQVPGKERELVADISWSGTSTYYADSVKGRFTISRDNAKNTFYLQLNSVIPEDTAVYYCAKGGRDRSRKYYYWGQGTQVTVSS,high polyreactivity
12,QVQLEESGGGLVQAGGSLRLSCAASGNIFSLNGMGRYRQAPGKEREFVAAITWSVGSTYYADSVKGRFSISRDNAKKTVYLQMNSLKPEDTAVYYCAATVSDLYKNEYYYWGQGTQVTVSS,low polyreactivity
13,QVQLVESGGGLVQAGGSLRLSCAASGIIFPFYAMGWYRQAPGKEREFVAAITSGDDTYYADSVKGRFTISRDNAKNTVYLQMNSLKPEDTAVYYCNKRLYIAGYWPQLYYIMDYWGQGTQVTVSS,low polyreactivity
14,QVQLVESGGGLVQAGGSLRLSCAASGRTFRVYAMGWYRPAPGKERELVATITSSGGSTYYADSVKGRFTISRDNAKNTVYLQMNSLKPEDTGVYYCNVSVYYNYDSSYYYWGQGTQVTVSS,low polyreactivity
15,QVQLVESGGGLVQAGGSLRLSCAASGSTFKAYAMGWYRQAPGKERELVAAITNSDGDTYYADSVKGRFTISRDNAKNTVYLLMNSLKPEDTAVYYFNADDALRQTSDYNYWGQGTQVTVSS,low polyreactivity
16,QVKLVESGGGLVQAGGSLRLSCAASGRIFIEYARGWYRQAPGKERELVASSTSSGGRTTYADSVKGRFTISRDNAKNTVYLQINSLKPEDTAVYYCNKDYYPRGHTRFGYWGVGTQVTVSS,low polyreactivity
17,QVQLVESGGGLVQAGGSLRLSCAASGRIFARNALGWYRQAPGKEGELVARIRASGGSTYYADSVKGRFTISRDNEKNTVYLQMNSLKPEDTAVYYCNARTSSPYRVDYWGQGTQVTVSS,high polyreactivity
18,QGQLVDSGGGLVQAGGSLRLSCAASGSTFKNNAMGWYRQAPGKEREFVASISKRGGSTYYADSVKGRFTISRDNAKNTVYLQMNSMKPEDTAVYYCAKTYWSYGLSHGDYGEFDYWGQGTQVTVSS,high polyreactivity
19,QVQLVESGGGLVQAGGSLRLSCAASGRIFGLYAMGWYRQAPGKERELVASISQSGANTYYADSVKGRFTISRDNAKNTVYLQMNCQKPEDTAVSYCAAKRYDRYYYWVGYWGQGTQVIVSS,low polyreactivity
20,QVQLVESGGGLVQAGGSLPLSCAASGNTFYNYAMGWYRQAPGKERELVAAISLSGGSTYYADSVKGRFTISRDNAKNTVYLQMNSLKPEDTAVYYCAADIFYYSSSYGYWGQGTQVTVSS,low polyreactivity
21,QVQLVESGGGLVKAGGSLRLSCAASGRTFLRNAMGWYRPAPGKERELVATITRGGSTYYADSVKGRFTISRDNAKNTVYLQMNSLKPEDTAVYYCAKDITGGFRRPDYGYWGQGTQVTVSS,low polyreactivity
22,QVQLVESGGGLVQAGGSLRLSCAASGFTFSYYAKGWYRQAPGKERELVARISFSGTRTYYADSVKGRFTISRDNAKKTVYLQMKSLKPEDTAVSYWARRPGAWKYVYSGDYWGQGTQVTVSS,high polyreactivity

row,Sequence,polyreactivity (PSR sort gate)
1,QVQLVESGGGLVQAGGSLRLSCAASGRTFYRYAMGWYRQAPGKERELVASITRRGGNTYYADSVKGLFTISRDNAKNTVYLQMNSLKPEDTAVYYCAAQSLHPGNWGQGTQVTVSS,high polyreactivity
2,QVQLVESGGGLVQAGGSLRLSCAASGSTIAYYAMGWYRQAPGKERELVAAISKRGGSTYYADSVKGRFTISRDNAKNTVYLQMNSLKPEDTAGYYCATGRSTDKGYYFWGQGTQVTVSS,high polyreactivity
3,QVQLVESGGGLVQPGGSLRLSCAASGSTFDWYAMAWYRQAPGKQRELVAAISSDDSTYYADSVKGRFTISRDNAKNTVYLQMNSLKPEETAVYYCAFDVYSDYGDYGFWGQGTQVTVSS,low polyreactivity
4,QVQLVESGGGLVQAGGSLRLICAASGLTFISYAMGWYRQAPGKERELVAAITYSGGSTYYADSVKGRFTISRDNAKNTVYLQMNSLKPEDTAVYYCAVEIPGLLWYLPTYDYWGQGTQVTVSS,low polyreactivity
5,QVQLVESGGGLVHAGGSLLLSCAASGRTFRTYTMGLYRQAPGKERELVAVITWTGGSTYYADSVKGRFTISRDNAKNTVYIQMNSLKPEDTAVYYCAARIITFSNVYNGYEYWGQGTQVTVSS,high polyreactivity
6,QVQLVESGGGLVQAGGSLRLSCAASGFTFTSNAMGWYRQAPGKERELVAVISTRGGSTYYADSVKGRFTISRDNAKNTVYLQMNSLKPEDTAVYYCAARQIPNSVLVHYGYWGLGTQVTVSS,high polyreactivity
7,QVQLVESGGGLVQAGGILRLSCAASGSTLTYYTMGWYRQAPGKERELVAHISWSSGRTYYADSVKGRFTISRDNAKNTVYLQMNSLKPEDTAVYYCNADRTYYRGLDYWGQGTQVTVSS,high polyreactivity
8,QVQLVESGGGLVQAGGSLRLSCAASGFNFSDYDMGWYRQAPGKERELVAAITYSGCSTYYADSVKGRFTISRDNAKKTVYLQMNSLKPEDTAVYYCAAVKSRYAEAVDYYYWGQGTQVTVSS,low polyreactivity
9,QVQLVESGGGLVQAGGSLRLSWAASGSTFNVYAMGWYRQAPGKERELVAGIRDSDGSTNYADSVKGRFTISRDNAKNTVYLQMNSLKPEDTAVYYCAADLYDINWSVWLDYWGQGTQVTVSS,low polyreactivity
10,QVQLQERGGGLVQARGSLRLSCAASGNISYRTNMGWYRPAPGKERELVASIGGGTTNYADSVKGRFTISRDNAKKTVYLQMNSLKPVDTAVYYCAVVGTTQFRHRYWGQGTQVTASS,high polyreactivity
11,QVQLVESGGGLVQAGGSLRLSCAASGITFWNAMGWYRQAPGKERELVAAITSSGGSTYYADSVKGRFTISRDNAKNTVYLQMNSLKPEDTAVYYCAADYGRTRYDMDYWGQGTQVTVSS,low polyreactivity
12,QVQLVESGGGLVQAGGSLRLSCAASGRTLVYAMGWYRQAPGKERELVATIYRGGNTYYADSVKGRFTISRDNAKNTVYLQMNSLKPEDTAVYYCNKPTYQWGQGTQVTVSS,high polyreactivity
13,QVQLVESGGGLVQAGGSLRLSCAASGRTIGLNGMGWYRQAPGNERELVAGISWSGGSTNYADSVKGRFTISRDNAKNTVYLQMNSLKPEDTAVNYCPPDFVYYVVNDFGWSYAYEYWGQGTQVTVSS,low polyreactivity
14,QVQLVESGGGIVQAGGRLRISCAASGFSFRKYAMGWSRQAPGKEREFVASISSTGARTYYADSVKGRFTISRDNAKNTVYLQMTSLKPEDTAVYYCAAAYGRYYYTYDYWGLGTQVTVSS,high polyreactivity
15,QVQLVESGGRLVHAGGSLRLSCAASGSTFERNLMGWYSEAPGKERELVAAISRVSSTNYADSVKGRFTISRDNAKNTVYLQMNSVKPEDTAVYSCAADRAGSIMNYWGQGTQVTVSS,low polyreactivity
16,QVQLVESGGGLVQAGGSLRLSCDASGNTFLWYAMGWYRQAPGKERELVAAITYSGGSTYYADSVKGRFTISRDNAKITVYLQMNSLKPEDTARYYCNADYFGYDYVEYGYWGQGTQVTVSS,low polyreactivity
17,QLQLVESRGGLVQAGGSLRLSCAASGRIFFSNPMGWYIQAPGKDRELVASMTGGDDTNYADSVKGRFTISRDNAKNTVYLQMNSLKPEDTAVYYCAARAIPSYRWVYRFAPQYDYWGQGTQVTVSS,low polyreactivity
18,PVQLVDSGGGLVQAGGSLRLSCAASGRTFGWYAMGWYRQAPGKERELVAAIRGVRTHYADSVKGRFTISRDNAKNTVYLQMNSLKPEDTAVYYCAARYYRWTKSEYGYWGQGTQVTVSS,high polyreactivity
19,QVQLVESGGGLVQAGGSLRLSCAASGLIFSSNAMGWYRQAPGKERELVAAISRRGGNTYYADSVKGRFTISRDNAKNTVYLQMNSLKPEDTAVYYCAARRYYVASIYRYDSWGQGTQVTVSS,high polyreactivity
20,QVQLVESGGGLVQAGGGLRLSCAASGSYYKYYAMGWYRQAPGKEREFVAAITRSGGSTYYADSVKGRFTISRDNAKNTDYLQMNSLKPEDTAVYYCATDLRTRNYDYWGQGTQVTVSS,high polyreactivity
21,QVQLVESGGGLVQAGGSLRLSCAASGRIFSYNAMGWYRQAPGKERDLVASISGGGSTYADSVKGRFTISRDNAKNTVYLQMNRLKPADTAVYYCNAVHFSYEYDYWGQGTQVTVSS,high polyreactivity
